Assay results: patent US5889152A, “Porphenins--antibiotic peptides” (Regents of the University of California, priority 1995, dated 1999)
Where no end group is shown, it is not given here.

B1: Prophenin-1: 79-residue proline-rich antimicrobial peptide purified from porcine leukocytes, mass 8,683, SEQ ID NO:1 (protein)
chain: AFPPPNVPGPRFPPPNFPGPRFPPPNFPGPRFPPPNFPGPRFPPPNFPGPPFPPPIFPGPWFPPPPPFRPPPFGPPRFP

Columns and labels:
C. albicans, strain 820 = assay: Radial diffusion assay in agarose gels, C. albicans; assay type: cell-based, Candida albicans; conditions: clear zone units
Experimental: (§1) Aliquots (66 μl) of each fraction were dried by vacuum centrifugation, and resuspended in approximately 6.6 μl of 0.01% acetic acid. […] samples of this concentrate were tested for antimicrobial activity against E. coli ML-35, L. monocytogenes, Strain EGD and C. albicans, strain 820 by radial diffusion and gel overlay techniques (Lehrer, R. I. et al. J Immunol Meth (1991) 137:167-173). Active fractions were further examined by acid-urea PAGE and SDS-PAGE. Prophenins emerged from the P10 column in fractions 38-43 (39.6 ml total volume), which contained a total of 18 mg protein by BCA analysis.
(§2) The radial diffusion assay in agarose gels as described above was also used to test the activity of the purified prophenins. Samples of 5 μL each were added to 3 mm wells in thin gels composed of 10 mM sodium phosphate, 30 mg/ml trypticase soy broth powder in 1% agarose and containing approximately 4×10^5 CFU/ml of mid-log phase organisms. After allowing 3 hours for the samples to diffuse into the underlayer gel, a nutrient-rich overlay gel was poured and the plates were incubated for 24 hours at 37° C. to allow surviving organisms to form microcolonies. The diameters of the clear zones were measured and expressed in "units" (10 units=1 mm) as described previously.

E. coli ML-35 = assay: Radial diffusion assay in agarose gels, E. coli; assay type: cell-based; conditions: for inhibitory activity (FIG. 4a): E. coli ML-35, clear zone units
Experimental: as §1, §2

[1] = test system: lipid polysaccharide (LPS) of the Gram-negative bacterium E. coli strain 0.55B5; assay: Limulus amebocyte lysate (LAL) test for endotoxin binding; assay type: biochemical; conditions: for concentration giving complete inhibition of gelation / concentration giving complete inhibition of gelation, molar: LAL test; for LAL gel formation: peptide 0.63 μg/ml (.625 in Table 4), LPS 0.05 endotoxin unit/ml
Experimental: The prophenins of the invention were tested for their ability to bind the lipid polysaccharide (LPS) of the Gram-negative bacterium E. coli strain 0.55B5. The assay was the Limulus amebocyte lysate (LAL) test for endotoxins conducted in the presence and absence of the test compounds. The test was conducted using the procedure described in Sigma Technical Bulletin No. 210 as revised in December 1992 and published by Sigma Chemical Company, St. Louis, Mo.
The LAL test is based on the ability of LPS to effect gelation in the commercial reagent E-TOXATE™ which is prepared from the lysate of circulating amebocytes of the Horseshoe Crab Limulus polyphemus. As described in the technical bulletin, when exposed to minute quantities of LPS, the lysate increases in opacity as well as viscosity and may gel or clot depending on the concentration of endotoxin. The technical bulletin goes on to speculate that the mechanism appears analogous to the clotting of mammalian blood and involves the steps of activation of a trypsin-like preclotting enzymes by the LPS in the presence of calcium ion, followed by enzymic modifications of a "coagulogen" by proteolysis to produce a clottable protein. These steps are believed tied to the biologically active or "pyrogenic" portion of the molecule. It has been shown previously that detoxified LPS (or endotoxin) gives a negative LAL test.
Polymyxin B is a cyclic 1.2 kD acylated […] obtained from Bacillus polymyxa. Polymyxin B was used as a positive control since it is known to inhibit LPS-induced Limulus hemocyte lysate clotting.
In the assay, the amounts of prophenin-1 and polymyxin B (78% free polymyxin, Sigma) were preincubated in a final volume of 0.2 ml and the test mixtures contained LPS at a final concentration of 0.05 endotoxin unit/ml and E-TOXATE™ at the same concentration. The test compounds were incubated together with the LPS for 15 minutes before the E-TOXATE™ was added to a final volume (after E-TOXATE™ addition) of 0.2 ml. The tubes were then incubated for 60 minutes at 37° C. and examined for the formation of a gel.
The ability of fragments of prophenin-1 to bind LPS was also assayed. Prophenin-1 was digested with TLCK treated trypsin as described above, thus cleaving the protein C-terminal to the initial 4 arginines. The fragments were purified by RP-HPLC, and their identities were verified by ESI-MS and amino acid composition analysis. The three fragments were those obtained as described in Example 1 and are as follows: […]

[2] = test system: L. monocytogenes, Strain EGD; assay: Radial diffusion assay in agarose gels, L. monocytogenes; assay type: cell-based, Listeria monocytogenes
Experimental: as §1, §2

| Molecule | inhibitory activity (FIG. 4c) (C. albicans, strain 820) | inhibitory activity (FIG. 4a) (E. coli ML-35) | concentration giving complete inhibition of gelation [1] [µg/mL] | concentration giving complete inhibition of gelation, molar [1] | LAL gel formation [1] | LPS binding / inactivation in words [1] | potency in binding LPS relative to polymyxin B sulfate, molar basis ([1]; 4.2/0.072) | concentrations at which some activity was shown ([2]; FIG. 4b) | inhibitory activity (FIG. 4b) ([2]; clear zone units) | specificity for Gram-negative bacteria (E. coli ML-35; compared over E. coli, L. monocytogenes, C. albicans) |
| --- | --- | --- | --- | --- | --- | --- | --- | --- | --- | --- |
| HNP-1: human defensin (HNP-1), control | substantially noninhibitory | – | – | – | – | – | – | – | – | – |
| PG-3: protegrin-3 (PG3), control (RGGGLCYCRRRFCVCVGR; ends and bridges not checked; cysteine pairing not given here; UniProt P32196 131-148, looked up) [reference compound] | successful antifungals | more inhibitory than HNP-1 | – | – | – | – | – | – | – | – |
| Polymyxin B [reference compound] | – | – | 5 | ≈ 4.2 μM | ++ | – | – | – | – | – |
| B1 | substantially noninhibitory | comparable in inhibitory activity to PG3 and NP1 | 0.625 | ≈ 72 nM | 0 | more effective than the additive value of the subunits | approximately 60 fold | above 100 μg/ml | substantially less inhibitory | highly specific for Gram-negative bacteria |
